Our source for the Km, kcat and stoichiometry N values is publication PMC8591083, “Catechol 1,2-Dioxygenase From Paracoccus sp. MKU1—A Greener and Cleaner Bio-Machinery for cis, cis-Muconic Acid Production by Recombinant E. coli” (Frontiers in Bioengineering and Biotechnology, 2021).

The subject of series [1] is Oc1ccccc1O. In words: purified protein. The note with it: 50 mM Tris-HCl pH 7.5, 37 °C, 20 min, catechol 0-200 µM, substrate O2 from air.
In series [2] the target is Catechol 1,2-dioxygenase from Paracoccus sp. MKU1 (Paracoccus sp. MKU1). In words: SEC; purified C12O on Sephacryl S-300 HR, 50 mM Tris-HCl pH 8.5, 1 ml/min, A280; calibrated with NativeMark standards (20-1,236 kDa). (Size exclusion chromatography separates by hydrodynamic size, large species first.)

The term Km denotes the substrate concentration at which the rate is half of its maximum. What is called kcat is the number of substrate molecules converted per active site and unit of time at saturation. With “Catechol 1,2-dioxygenase (C12O) (Paracoccus sp. MKU1)”, in series [1], the Km amounted to 12.89 µM and the kcat is 199.5 s⁻¹.
Usually stoichiometry N stands for the number of molecules, sites or subunits per partner or assembly. In series [2], “Catechol 1,2-dioxygenase from Paracoccus sp. MKU1 (enzyme)” returned a stoichiometry N of 3.
